The text below walks through data of paper PMC5778036.

For the experiment, the target named is CCR5 expressed on the surface of pancreatic cancer cells (human (endogenous in AsPC-1, BxPC-3, MIA PaCa-2)) (UniProt P51681).
Chain of UniProt P51681 (P51681 whole entry): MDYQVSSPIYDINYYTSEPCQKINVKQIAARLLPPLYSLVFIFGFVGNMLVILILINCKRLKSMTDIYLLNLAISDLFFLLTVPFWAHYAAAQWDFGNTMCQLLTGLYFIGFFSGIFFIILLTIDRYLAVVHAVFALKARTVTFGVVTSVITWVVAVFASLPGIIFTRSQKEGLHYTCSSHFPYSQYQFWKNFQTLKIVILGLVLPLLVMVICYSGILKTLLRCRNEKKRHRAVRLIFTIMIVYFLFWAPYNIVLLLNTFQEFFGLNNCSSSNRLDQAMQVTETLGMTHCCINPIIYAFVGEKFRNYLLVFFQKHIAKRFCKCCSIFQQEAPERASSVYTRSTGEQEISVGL

Regarding “CCL5 (CC chemokine ligand 5) recombinant protein (from UniProt P13501 24-91)”, the CCR5 mRNA (qRT-PCR) in AsPC-1 cells in presence of CCL5, fold against untreated; decreased by maraviroc stood at 11 fold; the CCR5 mRNA (qRT-PCR) in BxPC-3 cells in presence of CCL5, fold against untreated; decreased by maraviroc was found to be 7 fold; the CCR5 mRNA (qRT-PCR) in MIA PaCa-2 cells in presence of CCL5, fold against untreated; decreased by maraviroc amounted to 4 fold.
